Measurements: patent US20050176123A1, “Protease inhibitor” (Morinaga Milk Industry Co., Ltd., priority 2002, published 2005)

B1: bovine lactoferrin: commercially available bovine lactoferrin (Morinaga Milk Industry), 78 kDa, SEQ ID No. 2 (protein, listed as Bos taurus)
chain: MKLFVPALLSLGALGLCLAAPRKNVRWCTISQPEWFKCRRWQWRMKKLGAPSITCVRRAFALECIRAIAEKKADAVTLDGGMVFEAGRDPYKLRPVAAEIYGTKESPQTHYYAVAVVKKGSNFQLDQLQGRKSCHTGLGRSAGWIIPMGILRPYLSWTESLEPLQGAVAKFFSASCVPCIDRQAYPNLCQLCKGEGENQCACSSREPYFGYSGAFKCLQDGAGDVAFVKETTVFENLPEKADRDQYELLCLNNSRAPVDAFKECHLAQVPSHAVVARSVDGKEDLIWKLLSKAQEKFGKNKSRSFQLFGSPPGQRDLLFKDSALGFLRIPSKVDSALYLGSRYLTTLKNLRETAEEVKARYTRVVWCAVGPEEQKKCQQWSQQSGQNVTCATASTTDDCIVLVLKGEADALNLDGGYIYTAGKCGLVPVLAENRKSSKHSSLDCVLRPTEGYLAVAVVKKANEGLTWNSLKDKKSCHTAVDRTAGWNIPMGLIVNQTGSCAFDEFFSQSCAPGADPKSRLCALCAGDDQGLDKCVPNSKEKYYGYTGAFRCLAEDVGDVAFVKNDTVWENTNGESTADWAKNLNREDFRLLCLDGTRKPVTEAQSCHLAVAPNHAVVSRSDRAAHVKQVLLHQQALFGKNGKNCPDKFCLFKSETKNLLFNDNTECLAKLGGRPTYEEYLGTEYVTAIANLKKCSTSPLLEACAFLTR
modifications: sig_peptide (1)...(19) Lactoferrin
B2: transferrin: commercially available bovine transferrin (Nihon Pharmaceutical Co., Ltd.), SEQ ID No. 4 (protein, listed as Bos taurus)
chain: MRPAVRALLACAVLGLCLADPERTVRWCTISTHEANKCASFRENVLRILESGPFVSCVKKTSHMDCIKAISNNEADAVTLDGGLVYEAGLKPNNLKPVVAEFHGTKDNPQTHYYAVAVVKKDTDFKLNELRGKKSCHTGLGRSAGWNIPMAKLYKELPDPQESIQRAAANFFSASCVPCADQSSFPKLCQLCAGKGTDKCACSNHEPYFGYSGAFKCLMEGAGDVAFVKHSTVFDNLPNPEDRKNYELLCGDNTRKSVDDYQECYLAMVPSHAVVARTVGGKEDVIWELLNHAQEHFGKDKPDNFQLFQSPHGKDLLFKDSADGFLKIPSKMDFELYLGYEYVTALQNLRESKPPDSSKDECMVKWCAIGHQERTKCDRWSGFSGGAIECETAENTEECIAKIMKGEADAMSLDGGYLYIAGKCGLVPVLAENYKTEGESCKNTPEKGYLAVAVVKTSDANINWNNLKDKKSCHTAVDRTAGWNIPMGLLYSKINNCKFDEFFSAGCAPGSPRNSSLCALCIGSEKGTGKECVPNSNERYYGYTGAFRCLVEKGDVAFVKDQTVIQNTDGNNNEAWAKNLKKENFEVLCKDGTRKPVTDAENCHLARGPNHAVVSRKDKATCVEKILNKQQDDFGKSVTDCTSNFCLFQSNSKDLLFRDDTKCLASIAKKTYDSYLGDDYVRAMTNLRQCSTSKLLEACTFHKP
modifications: sig_peptide (1)...(19) Transferrin
B3: human lactoferrin: commercially available human lactoferrin (Morinaga Milk Industry), SEQ ID No. 1 (protein, listed as Homo Sapiens)
chain: MKLVFLVLLFLGALGLCLAGRRRRSVQWCAVSQPEATKCFQWQRNMRKVRGPPVSCIKRDSPIQCIQAIAENRADAVTLDGGFIYEAGLAPYKLRPVAAEVYGTERQPRTHYYAVAVVKKGGSFQLNELQGLKSCHTGLRRTAGWNVPIGTLRPFLNWTGPPEPIEAAVARFFSASCVPGADKGQFPNLCRLCAGTGENKCAFSSQEPYFSYSGAFKCLRDGAGDVAFIRESTVFEDLSDEAERDEYELLCPDNTRKPVDKFKDCHLARVPSHAVVARSVNGKEDAIWNLLRQAQEKFGKDKSPKFQLFGSPSGQKDLLFKDSAIGFSRVPPRIDSGLYLGSGYFTAIQNLRKSEEEVAARRARVVWCAVGEQELRKCNQWSGLSEGSVTCSSASTTEDCIALVLKGEADAMSLDGGYVYTAGKCGLVPVLAENYKSQQSSDPDPNCVDRPVEGYLAVAVVRRSDTSLTWNSVKGKKSCHTAVDRTAGWNIPMGLLFNQTGSCKFDEYFSQSCAPGSDPRSNLCALCIGDEQGENKCVPNSNERYYGYTGAFRCLAENAGDVAFVKDVTVLQNTDGNNNEAWAKDLKLADFALLCLDGKRKPVTEARSCHLAMAPNHAVVSRMDKVERLKQVLLHQQAKFGRNGSDCPDKFCLFQSETKNLLFNDNTECLARLHGKTTYEKYLGPQYVAGITNLKKCSTSPLLEACEFLRK
modifications: sig_peptide (1)...(19) Lactoferrin

Assays:
Format in all cases: biochemical
papain [1] = target: T1, papain (Carica papaya, UniProt P00784); test: reverse zymography with papain on gelatin-containing SDS-polyacrylamide gel; conditions: 12.5% SDS-polyacrylamide gel with 0.1% gelatin, papain digestion pH 5.5, 37° C., 10 hours
T1 construct: purchased Wako Pure Chemical Industries, Ltd
T1 sequence (P00784 134-345): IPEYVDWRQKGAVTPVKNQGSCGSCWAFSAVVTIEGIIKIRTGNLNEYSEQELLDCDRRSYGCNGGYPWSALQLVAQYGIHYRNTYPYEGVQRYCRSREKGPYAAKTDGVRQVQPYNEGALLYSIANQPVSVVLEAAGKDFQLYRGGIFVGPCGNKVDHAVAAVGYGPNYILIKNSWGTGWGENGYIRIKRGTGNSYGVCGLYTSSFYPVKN
Excerpt: The inventor used a technique “reverse zymography” as a method of detecting protease inhibitory substance and detected a protease inhibitory substance located on the gel of SDS-polyacrylamide gel electrophoresis. The reverse zymography is based on a technique opposite of the normal zymography, and the basic principle of the reverse zymography is as follows. That is, a sample containing protease inhibitory substance is applied onto SDS-polyacrylamide gel containing gelatin, and electrophoresis is performed, followed by soaking the gel in a protease solution to degrade protein in the gel. Protease activity is inhibited on a portion where an inhibitory substance is present and gelatin of the portion avoids being degraded by protease and is stained with staining solution, which enables detection of inhibitory substance.
Using total milk protein and bovine lactoferrin (manufactured by Morinaga Milk Industry Co., Ltd.) as samples, electrophoresis (hereinafter, SDS-polyacrylamide gel electrophoresis is sometimes abbreviated to SDS-PAGE) was conducted with 12.5% SDS-polyacrylamide gel containing 0.1% of gelatin. After electrophoresis, the gel was washed by immersing it in a 2.5% Triton X-100 solution for 45 minutes, and further washed by repeating three times the operation of immersing the gel in distilled water for 45 minutes. […]

cathepsin B = target: T2, cathepsin B (Homo sapiens, UniProt P07858); test: cysteine protease inhibitory activity (Z-Phe-Arg-MCA fluorescence, method of Barrett et al.); conditions: pH 5.5, 37° C., 10 minutes
T2 construct: purchased Wako Pure Chemical Industries, Ltd
Experimental: (§1) Inhibitory activities against cysteine proteases including papain, cathepsin B, cathepsin L and cathepsin S (these proteases are available from Wako Pure Chemical Industries, Ltd.) were determined using commercially available bovine lactoferrin (manufactured by Morinaga Milk Industry Co., Ltd.) as a test sample. The inhibitory activity was measured with reference to the method by Barrett et al. (“Methods in Enzymology,” Vol. 80, p 535-561, 1981) as described below. Namely, Z-Phe-Arg-MCA (final concentration of […]: manufactured by Peptide Institute, Inc.) was added as a substrate to 0.1 M acetic acid buffer solution (pH 5.5) in which sample was dissolved at each concentration. Then, cysteine protease (a protease selected from papain, cathepsin B, cathepsin L and cathepsin S in the present test: manufactured by Wako Pure Chemical Industries, Ltd.) solution (final concentration: 15 units/ml) was added, the whole solution was mixed and the reaction was carried out at 37° C. for 10 minutes. Subsequently, fluorescence intensity (excitation wavelength: 370 nm, emission wavelength: 460 nm) of AMC (7-Amino-4-Methyl-Coumarin) released from the digested substrate was measured with a fluorescence spectrometer (manufactured by Hitachi, Ltd.).

cathepsin L = target: T3, cathepsin L (Homo sapiens, UniProt P07711); test: as above; conditions: pH 5.5, 37° C., 10 minutes
T3 construct: purchased Wako Pure Chemical Industries, Ltd
T3 sequence (P07711 114-333, species assumed): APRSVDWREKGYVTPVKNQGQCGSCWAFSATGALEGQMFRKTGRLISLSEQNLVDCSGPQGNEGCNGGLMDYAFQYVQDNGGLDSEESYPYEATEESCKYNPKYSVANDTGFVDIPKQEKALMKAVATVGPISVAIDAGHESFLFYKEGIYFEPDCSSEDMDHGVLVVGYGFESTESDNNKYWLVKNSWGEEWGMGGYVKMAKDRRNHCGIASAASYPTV
Experimental: as §1

papain [2] = target: T1, papain; test: as above; conditions: pH 5.5, 37° C., 10 minutes
Experimental: as §1

cathepsin S = target: T4, cathepsin S (Homo sapiens, UniProt P25774); test: as above; conditions: pH 5.5, 37° C., 10 minutes
T4 construct: purchased Wako Pure Chemical Industries, Ltd
T4 sequence (P25774 115-331, species assumed): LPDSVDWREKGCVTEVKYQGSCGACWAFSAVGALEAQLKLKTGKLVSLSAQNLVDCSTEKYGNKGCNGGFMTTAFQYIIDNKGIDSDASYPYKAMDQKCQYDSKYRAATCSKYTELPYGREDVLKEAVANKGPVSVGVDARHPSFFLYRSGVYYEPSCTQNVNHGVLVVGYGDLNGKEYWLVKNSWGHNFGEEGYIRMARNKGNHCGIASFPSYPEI
Experimental: as §1

Molecule | band in reverse zymography using papain (papain [1]) | inhibition rate at each concentration (%) (cathepsin B; inhibitor 10^−4M) | inhibition rate at each concentration (%) (cathepsin L; inhibitor 10^−4M) | inhibition of cysteine protease activity (papain [2]; inhibitor 10^−3 M) | inhibition rate at each concentration (%) (cathepsin B; inhibitor 10^−5M) | inhibition rate at each concentration (%) (cathepsin L; inhibitor 10^−6M) | inhibition rate at each concentration (%) (cathepsin S; inhibitor 10^−4M) | inhibition rate at each concentration (%) (cathepsin S; inhibitor 10^−5M) | inhibition rate at each concentration (%) (papain [2]; inhibitor 10^−6M)
B1 | positive band | – | – | – | – | – | – | – | –
B2 | – | more than 30% | more than 30% | completely inhibited | – | – | – | – | –
B3 | – | almost completely inhibited | – | – | more than 80% | completely inhibited | almost completely inhibited | more than 80% | completely inhibited
